Experimental data taken from US20170298146A1 (MODIQUEST B V, published 2017).
Non-standard residues stand in square brackets, D forms with d. No end group written: not given here. Cit = NC(=O)NCCC[C@H](N)C(=O)O

Assays:
[1] = molecular target: T1, huPAD2 deiminated human recombinant histone H2B (human); experiment: ELISA, 0.000128 ug/well
T1 construct: also called H2B/p2
Description: (§1) CFC-1 and CFC-0 were coated at the same concentration and served as positive and negative controls, respectively, for specific anti-citrulline reactivity and as coating controls. Non-coated wells were used to test for aspecific binding of the antibodies. […] Detection of bound anti-citrulline antibodies was performed by incubating the wells with rabbit-anti-human-HRP (1:2000) for one hour at RT followed by incubation with TMB substrate. The resulting OD (y-axis) is a measure for antibody binding. H1=recombinant histone 1; H1/p2=huPAD2 recombinant histone 1; H1/p4=huPAD4 recombinant histone 1 and so forth (x-axis).

[2] = molecular target: T2, human recombinant histone H4 (human, UniProt P62805 2-103); experiment: ELISA, 0.000128 ug/well
Description: as §1

[3] = molecular target: T3, human recombinant histone H2B (human); experiment: ELISA, 0.000128 ug/well
T3 construct: Non-deiminated
Description: as §1

[4] = molecular target: T4, huPAD4 deiminated human recombinant histone H2B (human); experiment: ELISA, 0.000128 ug/well
T4 construct: also called H2B/p4
Description: as §1

[5] = molecular target: T5, huPAD2 deiminated human recombinant histone H2A (human); experiment: ELISA, 0.000128 ug/well
T5 construct: also called H2A/p2
Description: as §1

[6] = molecular target: T6, huPAD4 deiminated human recombinant histone H3 (human); experiment: ELISA, 0.000128 ug/well
T6 construct: also called H3/p4
Description: as §1

[7] = molecular target: T7, huPAD2 deiminated human recombinant histone H3 (human); experiment: ELISA, 0.000128 ug/well
T7 construct: also called H3/p2
Description: as §1

[8] = molecular target: T2, human recombinant histone H4; experiment: ELISA, 0.4 ug/well
Description: as §1

[9] = molecular target: T8, human recombinant histone H2A (human); experiment: ELISA, 0.4 ug/well
T8 construct: Non-deiminated
Description: as §1

[10] = molecular target: T4, huPAD4 deiminated human recombinant …; experiment: ELISA, 0.4 ug/well
Description: as §1

[11] = molecular target: T9, huPAD4 deiminated human recombinant histone H2A (human); experiment: ELISA, 0.4 ug/well
T9 construct: also called H2A/p4; huPAD4 deiminated histone 2A
Description: as §1

[12] = molecular target: T5, huPAD2 deiminated human recombinant …; experiment: ELISA, 0.4 ug/well
Description: as §1

[13] = molecular target: T7, huPAD2 deiminated human recombinant …; experiment: ELISA, 0.4 ug/well
Description: as §1

[14] = molecular target: T1, huPAD2 deiminated human recombinant …; experiment: ELISA, 0.016 ug/well
Description: as §1

[15] = molecular target: T2, human recombinant histone H4; experiment: ELISA, 0.016 ug/well
Description: as §1

[16] = molecular target: T3, human recombinant histone H2B; experiment: ELISA, 0.016 ug/well
Description: as §1

[17] = molecular target: T8, human recombinant histone H2A; experiment: ELISA, 0.016 ug/well
Description: as §1

[18] = molecular target: T4, huPAD4 deiminated human recombinant …; experiment: ELISA, 0.016 ug/well
Description: as §1

[19] = molecular target: T9, huPAD4 deiminated human recombinant …; experiment: ELISA, 0.016 ug/well
Description: as §1

[20] = molecular target: T5, huPAD2 deiminated human recombinant …; experiment: ELISA, 0.016 ug/well
Description: as §1

[21] = molecular target: T6, huPAD4 deiminated human recombinant …; experiment: ELISA, 0.016 ug/well
Description: as §1

CFC-1 [22] = molecular target: T10, CFC-1; experiment: ELISA, 0.016 ug/well
T10 construct: Positive control for anti-citrulline reactivity; also called cfc1 XG
Description: as §1

[23] = molecular target: T7, huPAD2 deiminated human recombinant …; experiment: ELISA, 0.016 ug/well
Description: as §1

[24] = molecular target: T3, human recombinant histone H2B; experiment: ELISA, 0.00064 ug/well
Description: as §1

[25] = molecular target: T4, huPAD4 deiminated human recombinant …; experiment: ELISA, 0.00064 ug/well
Description: as §1

msVim XS/XL = molecular target: T11, msVim XS/XL (mouse, also: biotin label); experiment: peptide ELISA, 0.0023 ug/well
T11 construct: also called mouse vimentin peptide
T11 peptide: YVT[Cit]SSAV[Cit]L[Cit]SSVP
Description: (§2) Biotin and citrulline-containing peptides derived from fibrinogen and vimentin were immobilized on NEUTRAVIDIN®-coated 96-well ELISA plates (0.3 μg/well). CFC-1 and CFC-0 were coated at the same concentration and served as positive and negative controls respectively for specific anti-citrulline reactivity and as coating controls. Non-coated wells were used to test for aspecific binding of the antibodies. […] Detection of bound anti-citrulline antibodies was performed by incubating the wells with rabbit-anti-human-HRP (1:2000) for one hour at RT followed by incubation with TMB substrate. The resulting OD (y-axis) is a measure for antibody binding.
(§3) Biotin-labeled and citrulline-containing fibrinogen and vimentin peptides (Table 5) were also tested for reactivity with the therapeutic antibodies. Peptides were coated on 96-well NEUTRAVIDIN®-ELISA plates.

msFibα XH = molecular target: T12, msFibα XH (mouse, X at position 15 is citrulline; biotin label); experiment: peptide ELISA, 0.0023 ug/well
T12 peptide: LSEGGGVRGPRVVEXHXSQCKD
Description: as §2, §3

huFibα XG = molecular target: T13, huFibα XG (human, X at position 8 is citrulline; biotin label); experiment: peptide ELISA, 0.0023 ug/well
T13 peptide: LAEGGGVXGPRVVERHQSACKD
Description: as §2, §3

msFibβ XG = molecular target: T14, msFibβ XG (mouse, also: biotin label); experiment: peptide ELISA, 0.0023 ug/well
T14 peptide: EPTDSLDA[Cit]GHRPVDRR
Description: as §2, §3

msFibα XG = molecular target: T15, msFibα XG (mouse, X at position 8 is citrulline; biotin label); experiment: peptide ELISA, 0.0023 ug/well
T15 peptide: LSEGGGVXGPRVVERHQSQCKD
Description: as §2, §3

huFibα XH = molecular target: T16, huFibα XH (human, X at position 15 is citrulline; biotin label); experiment: peptide ELISA, 0.0023 ug/well
T16 peptide: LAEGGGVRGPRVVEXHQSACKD
Description: as §2, §3

CFC-1 [26] = molecular target: T10, CFC-1; experiment: peptide ELISA, 0.0023 ug/well
Description: as §2, §3

B1: RhmAb2.102 (antibody, human IgG1, lambda)
heavy: not shown
light: QSVLTQPPSMSAAPGQKVTISCSGSSSNIGNNYVSWYQQVPGTAPKLLIYDDNKRPSGIPGRFSGSKSATSATLGITGLQAGDEADYYCGSWDDNLSVVLFGGGTKLTVLGQPKAAPSVTLFPPSSEELQANKATLVCLISDFYPGAVTVAWKADSSPVKAGVETTTPSKQSNNKYAASSYLSLTPEQWKSHRSYSCQVTHEGSTVEKTVAPTECS
notes: Human IgG1 lambda; also called Rhm2.102
OD [1]: 0.051 OD
OD [2]: 0.06 OD
OD [3]: 0.052 OD
OD [4]: 0.053 OD
OD [5]: 0.063 OD
OD [6]: 0.06 OD
OD [7]: 0.066 OD
OD [8]: 0.091 OD
OD [9]: 0.071 OD
OD [10]: 0.054 OD
OD [11]: 2.72 OD
OD [12]: 3.08 OD
OD [13]: 1.18 OD
OD [14]: 0.052 OD
OD [15]: 0.061 OD
OD [16]: 0.065 OD
OD [17]: 0.057 OD
OD [18]: 0.052 OD
OD [19]: 0.426 OD
OD [20]: 0.628 OD
OD [21]: 0.076 OD
OD (CFC-1 [22]): 0.702 OD
OD [23]: 0.155 OD
OD [24]: 0.052 OD
OD [25]: 0.055 OD
OD (msVim XS/XL): 0.142 OD
OD (msFibα XH): 0.085 OD
OD (huFibα XG): 0.125 OD
OD (msFibβ XG): 0.12 OD
OD (msFibα XG): 0.125 OD
OD (huFibα XH): 0.123 OD
OD (CFC-1 [26]): 0.506 OD
